Here are results for seven molecules from patent EP4596580A1 (Staidson (Beijing) Biopharmaceuticals Co., Ltd., dated 2025).

Experiment [1] concerns the target T1, LIGHT on the surface of HEK293-LIGHT stable cells (human, UniProt O43557 1-240). The experiment is described as follows: cell-based or functional assay.
For experiment [2], the target named is T2, hFc-human LIGHT (human).
T2 construct: also called hFc-huLIGHT
The experiment can be described thus: competition ELISA, LTβR-His coated, hFc-huLIGHT added. For orientation: An ELISA detects its analyte on a solid surface through an enzyme-linked reagent.

Experiment [3] concerns the target T3, His-human LIGHT (human).
T3 construct: also called His-huLIGHT; free LIGHT
T3 chain: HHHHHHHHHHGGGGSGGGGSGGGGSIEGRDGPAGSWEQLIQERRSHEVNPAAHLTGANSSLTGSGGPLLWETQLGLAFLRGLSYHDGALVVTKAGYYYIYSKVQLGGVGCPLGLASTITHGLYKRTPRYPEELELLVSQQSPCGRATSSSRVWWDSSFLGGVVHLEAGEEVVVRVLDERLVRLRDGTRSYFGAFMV
The experiment can be described thus: ELISA, His-huLIGHT coated.

The target in experiment [4] is T3, His-human LIGHT. The experiment can be described thus: cell-based or functional assay.
The target of experiment [5] is T3, His-human LIGHT. The experiment can be described thus: cell-based or functional assay.
The target in experiment [6] is T4, His-cynomolgus monkey LIGHT (cynomolgus monkey).
T4 construct: also called His-cynoLIGHT
T4 chain: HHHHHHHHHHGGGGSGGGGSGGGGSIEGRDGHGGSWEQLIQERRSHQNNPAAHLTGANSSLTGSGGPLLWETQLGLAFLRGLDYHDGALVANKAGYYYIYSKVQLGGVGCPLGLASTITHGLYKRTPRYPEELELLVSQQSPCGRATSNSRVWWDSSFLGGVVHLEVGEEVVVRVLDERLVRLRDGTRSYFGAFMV
The experiment is described as follows: ELISA, His-cynoLIGHT coated.

The next experiment deals with T5, His-mouse LIGHT (mouse).
T5 construct: also called His-musLIGHT
T5 chain: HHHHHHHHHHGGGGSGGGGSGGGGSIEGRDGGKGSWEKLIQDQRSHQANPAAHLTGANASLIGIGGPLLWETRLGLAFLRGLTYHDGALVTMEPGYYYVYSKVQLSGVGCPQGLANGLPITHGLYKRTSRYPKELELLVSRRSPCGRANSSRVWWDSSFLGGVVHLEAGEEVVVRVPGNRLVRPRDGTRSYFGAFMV
The experiment can be described thus: ELISA, His-musLIGHT coated.

The target in experiment [7] is T3, His-human LIGHT. The experiment is described as follows: cell-based or functional assay.
Experiment [8] addresses T3, His-human LIGHT. The experiment can be described thus: cell-based or functional assay.
Experiment [9] concerns the target T2, hFc-human LIGHT. The experiment is described as follows: competition ELISA, HVEM-His coated, hFc-huLIGHT 1 µg/ml.
For experiment [10], the target named is T1, LIGHT on the surface of HEK293-LIGHT …. The experiment is described as follows: cell-based or functional assay. The source holds these as a separate data set.
Experiment [11] has as its target T2, hFc-human LIGHT. The experiment is described as follows: competition ELISA, LTβR-His coated, hFc-huLIGHT 1 µg/ml.
Experiment [12] concerns the target T3, His-human LIGHT. The experiment can be described thus: ELISA, His-huLIGHT coated.
In experiment [13] the target is T2, hFc-human LIGHT. The experiment is described as follows: competition ELISA, LTβR-His coated, hFc-huLIGHT added. The source holds these as a separate data set.
Experiment [14] concerns the target T3, His-human LIGHT. The experiment can be described thus: cell-based or functional assay.
Experiment [15] deals with T3, His-human LIGHT. The experiment can be described thus: cell-based or functional assay.
Experiment [16] has as its target T4, His-cynomolgus monkey LIGHT. The experiment can be described thus: ELISA, His-cynoLIGHT coated.
Experiment [17] concerns the target T3, His-human LIGHT. The experiment can be described thus: SPR, Biacore 8K, antibody on CM5 chip.
Experiment [18] concerns the target T4, His-cynomolgus monkey LIGHT. The experiment is described as follows: ELISA, His-cynoLIGHT coated.

Where two headings read alike, the source gives them in different places.

B1: hum_LT-m58-1 (antibody, human IgG4, V domains shown)
VH: QVQLVQSGAEVKKPGASVKVSCKASGYTFIDHIMNWVRKAPGQGLEWMGRIYPVSGETNYNQKFMGRATFTVDRSTSTVYMELSSLRSEDTAVYYCGRGSYYWNAMDYWGQGTLVTVSS
VL: EIVMTQSPATLSVSPGERATLSCKASQSVDFDGDSYMNWYQQKPGQPPRLLIYSASNLESGIPARFSGSGSGTEFTLTISSLQSEDFAVYYCQQSIEDPWTFGQGTKLEIK
notes: humanized from LT-m58
Take B1: the “IC50, LTβR NF-κB luciferase reporter, HEK293-LIGHT cells” value (from here on “IC50 … HEK293-LIGHT cells”) in experiment [1] came to 8.06 nM. Further, in the experiment with hFc-human LIGHT [2], the IC50 (commonly the concentration at which inhibition is half-maximal) came to 0.291 nM. Also, in the experiment with His-human LIGHT [3], the response was half-maximal at 0.0141 nM (EC50). Besides, the “IC50, LTβR NF-κB luciferase reporter, free LIGHT” value with His-human LIGHT [4] is 0.183 nM. Moreover, in the experiment with His-human LIGHT [5], the “IC50, HVEM NF-κB luciferase reporter, free LIGHT” value was 0.0933 nM.

B2: hum_LT-m58-2 (antibody, human IgG4, V domains shown)
VH: QVQLVQSGAEVKKPGASVKVSCKASGYTFIDHIMNWVRKAPGQGLEWIGRIYPVSGETNYNQKFMGRVTFTVDRSTSTVYMELSSLRSEDTAVYYCGRGSYYWNAMDYWGQGTLVTVSS
VL: EIVMTQSPATLSVSPGERATLSCKASQSVDFDGDSYMNWYQQKPGQAPRLLIYSASNLESGIPARFSGSGSGTEFTLTISSLQSEDFAVYYCQQSIEDPWTFGQGTKVEIK
notes: humanized from LT-m58
Turning to B2, the “IC50 … HEK293-LIGHT cells” value in experiment [1] was 5.91 nM. Besides, the IC50 in the experiment with hFc-human LIGHT [2] was 0.258 nM. In addition, in the experiment with His-human LIGHT [3], the EC50 (usually the concentration needed to bring the measured effect to its halfway point) was 0.0154 nM. Further, in the experiment with His-human LIGHT [4], the “IC50, LTβR NF-κB luciferase reporter, free LIGHT” value turned out to be 0.135 nM. The “IC50, HVEM NF-κB luciferase reporter, free LIGHT” value with His-human LIGHT [5] stood at 0.199 nM.

B3: hum_LT-m58-6 (antibody, human IgG4, V domains shown)
VH: QVQLVQSGAEVKKPGASVKVSCKASGYTFIDHIMNWVRKAPGQGLEWMGRIYPVSGETNYNQKFMGRATFTVDRSTSTVYMELSSLRSEDTAVYYCGRGSYYWNAMDYWGQGTLVTVSS
VL: DIVMTQSPDSLAVSLGERATINCKASQSVDFDGESYMNWYQQKPGQPPKLLIYSASNLESGVPDRFSGSGSGTDFTLTISSLQAEDVAVYYCQQSIEDPWTFGQGTKVEIK
notes: humanized from LT-m58
B3 registered an IC50 in the experiment with hFc-human LIGHT [2] of 0.628 nM. The EC50 in the experiment with His-human LIGHT [3] was determined as 0.0349 nM; in experiment [6], 2.58 pM. Besides, the binding result with His-mouse LIGHT is given as “no binding”.

B4: hum_LT-m58-5 (antibody, human IgG4, V domains shown)
VH: QVQLVQSGAEVKKPGASVKVSCKASGYTFIDHIMNWVRKAPGQGLEWIGRIYPVSGETNYNQKFMGRVTFTVDRSTSTVYMELSSLRSEDTAVYYCGRGSYYWNAMDYWGQGTLVTVSS
VL: EIVMTQSPATLSVSPGERATLSCKASQSVDFDGESYMNWYQQKPGQAPRLLIYSASNLESGIPARFSGSGSGTEFTLTISSLQSEDFAVYYCQQSIEDPWTFGQGTKVEIK
notes: humanized from LT-m58
Turning to B4, the IC50 in the experiment with hFc-human LIGHT [2] stood at 0.746 nM. Besides, the EC50 came out at 0.0305 nM in the experiment with His-human LIGHT [3] and 4.43 pM in experiment [6]. In the experiment with His-mouse LIGHT, the binding result was “no binding”.

B5: LT-m37 (antibody, human IgG4, V domains shown)
VH: QVQLKQSGAELVRPGTSVKVSCKASGYSFTGYFINWVKQSHGKSLEWIGRIYPYNVNTFYNQNFKGRATLTADKSSSTAHMELLSLTSEDSAVYYCGRGTHYYGSSGAMDYWGQGTSVTVSS
VL: DILLTQSHKFMSTSVGDRVSITCKASQNVGTAVAWYQQKPGQSPKLLIYSASNRYTGVPDRFTGSGSGTDFTLTISNMQSEDLADYFCQQYSSYPYTFGGGTKLEIK
Turning to B5, the “IC50, LIGHT induced MMP-9 production in BEAS-2B bronchial epithelial cells” value with His-human LIGHT [7] was determined as 0.359 µg/mL. In addition, the “IC50, HVEM NF-κB luciferase reporter, free LIGHT” value in the experiment with His-human LIGHT [8] is 0.402 nM. The results for the “IC50 ratio (IC50 of the antibody / IC50 of F19)” value with hFc-human LIGHT [9] and in the experiment with hFc-human LIGHT [11] were 0.435 and 0.301, respectively. Further, the “IC50 … HEK293-LIGHT cells” value in [10] worked out at 2.28 nM. Also, the EC50 in the experiment with His-human LIGHT [12] worked out at 0.0774 µg/mL; in experiment [16], 0.157 nM. This molecule also returned an IC50 with hFc-human LIGHT [13] of 0.866 nM. Further, the “IC50, HVEM NF-κB luciferase reporter (293T-HVEM-NF-κB-Luc), free LIGHT” value (“IC50 … (293T-HVEM-NF-κB-Luc), free LIGHT” below) in the experiment with His-human LIGHT [14] was found to be 0.264 µg/mL. In addition, in the experiment with His-human LIGHT [15], the “IC50, LTβR NF-κB luciferase reporter, free LIGHT” value worked out at 0.257 nM.

B6: LT-m31 (antibody, human IgG4, V domains shown)
VH: QIQLLQSGPELEKPGETVKISCKASGYTFTNYGMNWVKQAPGKGLKWMGWINTYTGEPTYADDFKGRFAFSLETSASTAYLQINNLKNEDTATYFCARDNWDGKGMDYWGQGTSVTVSS
VL: DIVLTQSPKFMSTSVGDRVSITCKASQDVDTAVAWYQQKPGHSPKLLLYWASTRHTGVPDRFTGSGSGTDFTLTISNVQSEDLADYFCHQYGSYPLTFGAGTKLELK
For the molecule B6, in the experiment with His-human LIGHT [17], the dissociation constant Kd (as a rule, the constant that tells how readily two partners part at equilibrium) worked out at 0.0395 nM; the koff (as a rule, the rate constant with which the complex falls apart) was determined as 4.03e-05 s⁻¹; the kon (in general, a measure of how fast the partners come together) stood at 1.02e+06 M⁻¹ s⁻¹. The molecule also had an EC50 in the experiment with His-human LIGHT [12] of 0.0256 µg/mL. For the same molecule, the “IC50 … (293T-HVEM-NF-κB-Luc), free LIGHT” value in the experiment with His-human LIGHT [14] turned out to be 0.105 µg/mL. The binding result in experiment [18] is reported as “binds”.

B7: LT-m33 (antibody, human IgG4, V domains shown)
VH: QVQLKQSGAELVKPGASVRLSCKTSGYTFTNYYVYWVKQRPGQGLEWIGEINPTNGDPNFNEKFKSKATLTVDKSSSTAYMHLSSLTSEDSAVYYCTRSNWDYGNAMDFWGQGTSVTVSS
VL: DIVMTQSPASLAVSLGQRATISCKASQSVDFDGDGYMNWYQQKPGQPPKLLIYKASHLDSGIPARFSGSGSGTDFTLNIHPVEEEDAATYYCQQSIEDPLTFGDGTRLEIK
On to B7, for which, in the experiment with His-human LIGHT [17], the Kd came out at 0.0235 nM, the koff was determined as 4.07e-05 s⁻¹ and the kon is 1.73e+06 M⁻¹ s⁻¹. The EC50 in the experiment with His-human LIGHT [12] was 0.0221 µg/mL. In the experiment with His-human LIGHT [14], the “IC50 … (293T-HVEM-NF-κB-Luc), free LIGHT” value worked out at 0.207 µg/mL. In addition, the binding result in experiment [18] is reported as “binds”.
